In the assay the test system is rHev b 6-specific serum IgE. Nature of the assay: Immunoblotting detecting rHev b 6-specific serum IgE (Example 3). To be noted: sera from patients 1, 4 and 5; prohevein band around 20 kDa. Format: binding, human. The procedure:
FIG. 4 is an image of immunoblotting detecting rHev b 6-specific serum IgE. rHev b 6 was subjected to electrophoresis under reducing conditions on a 16% SDS PAGE minigel and transferred to a nitrocellulose membrane. After blocking with skim milk powder, the membrane was incubated with serum from latex allergic and non-allergic subjects (1:5 dilution). Antibody binding was detected by incubation with rabbit anti-human IgE, swine anti-rabbit immunoglobulins-HRP and 4-chloro-1-naphthol as substrate. M: molecular mass markers; C: Coomassie-stained gel; lane 1: 1A5.4.3 monoclonal antibody; lane 2: P1 serum; lane 3: P4 serum; lane 4: P5 serum; lane 5: non-latex-allergic serum; lane 6: no serum.
Hybridoma supernatants and patient sera were tested for reactivity with LAL, NAL, glove extract, rHev b 6 and hevein by 16% SDS-PAGE and immunoblotting as described previously (Sutherland et al., 2002, supra).

B1: rHev b 6: recombinant Hev b 6 (prohevein) expressed in E. coli from pPROEX-HTa with 6-His tag (protein)
chain: EQCGRQAGGKLCPNNLCCSQWGWCGSTDEYCSPDHNCQSNCKDSGEGVGGGSASNVLATYHLYNSQDHGWDLNAASAYCSTWDANKPYSWRSKYGWTAFCGPVGAHGQSSCGKCLSVTNTGTGAKTTVRIVDQCSNGGLDLDVNVFRQLDTDGKGYERGHITVNYQFVDCGDSFNPLFSVMKSSVIN
modifications: left off: small tags and cut ends
notes: recombinant Hev b 6 (prohevein) expressed in E. coli from pPROEX-HTa with 6-His tag
Regarding B1, the “serum IgE reactivity by Western blotting” value is listed as “all showed reactivity”.

The values above are taken from US20060233785A1, “Immunointeractive molecules and uses thereof” (priority 2001, published 2006).
